Results taken from US20240325555A1 (LANOVA MEDICINES, published 2024).
Changes are numbered by the printed parent chain.

B1: 47G1B10 (antibody, V domains shown)
VH: QVQLKQSGPGLVQPSQSLSITCTVSGFSLTTYGVHWVRQSPGKGLEWLGVIWTGGTTDYNAAFISRLSISKDNSKSQVFFKMNSLQANDTAIYYCARGPSSYWGQGTLVTVSA
VL: DIVMTQSQKFMSTSVGDRVSVTCKASQNVDTNVVWYQQKPGQSPKALIHSASYRYSGVPDRFTGSGSGTDFTLTISNVQSEDLAEYFCQQYNNYPWTFGGGTKLEIK
notes: Tested as chimeric antibody
B2: 39D10B2 (antibody, V domains shown)
VH: B1 VH with I92M
VL: B1 VL
notes: Tested as chimeric antibody
B3: 59C12C8 (antibody, V domains shown)
VH: EVQLQQSGAELVRSGASVKLSCTASDFNIEDYYIHWVKQRPEQGLEWIGWIDPENGDTEYAPKFQGKATMTADTSSNTAYLQLSSLTSEDTAVYYCPHGGGFRVFDYWGQGTTLTVSS
VL: DVLMTQTPLSLPVSLGDQASISCRSSQRIVHSNGNTYLEWYLQKPGQSPKLLIYKVSNRFSGVPDRFSGSGSGTDFTLKISRVEAEDLGVYYCFQGSHVPWTFGGGTKLEIK
notes: Tested as chimeric antibody
B4: 136F3D10C10 (antibody, V domains shown)
VH: QVQLQQSGPELVKPGASVRIFCKASGYTFTSFHIHWVKQRPGQGLEWIGWIYPGNDNTDHNEKFKGKATLSADKSSSTVYMQLSSLTSEDSAVYFCGRSNYYGPLFAYWGQGTLVTVSA
VL: B3 VL with V2I, R28N, H31R, L51V, K55R, H98Y, W101Y
notes: Tested as chimeric antibody
B5: 112H11C12 (antibody, V domains shown)
VH: QVQLQQPGAELVRPGASVKLSCKASGYTFTSYWMNWVKQRPGQGLKWIGMIDPSNSKTHYNQMFKDKATLTVDKSSNTAYMQLSSLTSEDSAVYYCARTSTTMATFAYWGQGTLVSVSA
VL: B3 VL with R28S, G96A, V99F, W101L, G105A, K108E, E110D, I111L, K112N
notes: Tested as chimeric antibody; also called 112H1C12
B6: 124H4D11 (antibody, V domains shown)
VH: EVPLQQSGAELVRSGASVKLSCTASGFNIKDYYMHWVKQRPEQGLEWIGWIDPENGDTEYDPKFQGKATMTADTSSNTADLQLSSLTSEDTAVYYCNARYYAFDYWGQGTTLTVSS
VL: B3 VL with R28S, D75E, H98Q, W101P, K108R
notes: Tested as chimeric antibody
B7: 109C9D4 (antibody, V domains shown)
VH: EVKLVESGGGLVQPGGSRKLSCAASGFTFSDYGMAWVRQAPGKGPEWVTFISNLAYSIYYADTVTGRFTISRENAKNTLYLEMSSLRSEDTAMYYCARVEENGNYFDYWGQGTTLTVSS
VL: DIQMTQTTSSLSASLGDRVTIRCRASQDIGIYLHWYQQKPDGTVKLLIYYTSRLHSGVPSRFSGSRSGTDYSLTIGNLEQEDIATYFCLQGNTIPPTFGGGTKLEIK
notes: Tested as chimeric antibody
B8: 127A2B9 (antibody, V domains shown)
VH: EVQLQESGPSLVKPSQTLSLTCSVTGDSITSGYWNWIRKLPGNKLEYMGYISYSGSTYYNPSLKSRISITRDTSKNQYYLQLNSVTTEDTATYYCARIYYDYDGYFDVWGAGTTVTVSS
VL: DIVMTQAAPSVPVTPGESVSISCRSSKSLLHSNGNTFLYWFLQRPGQSPQLLIYRMSNLASGVPDRFSGSGSGTAFTLRISRVEAEDVGVYYCMQHLEYPYTFGGGTKLEIK
notes: Tested as chimeric antibody
B9: 290F10G10.p1.Z13 (antibody, V domains shown)
VH: EVQLVQSGAEVKKPGASVKVSCKASGYTFTSYWIHWVRQAPGQGLEWIGTIYPGDADTRSTQKFKDKATVTADKSTSTVYMELSSLRSEDTAVYYCTRSLIHDDYDKYYFDYWGQGTTVTVSS
VL: DIQMTQSPSSLSASVGDRVTITCKARQDINKYIAWYQQKPGKAPKLLIYYTSILQPGVPSRFSGSGSGRDYTFTISSLQPEDIATYYCLQYDYFFTFGGGTKVEIK
B10: 290F10G10.p1.Z14 (antibody, V domains shown)
VH: B9 VH
VL: B9 VL with Y49H, V58I
B11: 290F10G10.p1.Z18 (antibody, V domains shown)
VH: B9 VH with V2I, Q39E
VL: B9 VL with Q38H, A43G, Y49H, V58I
B12: 290F10G10.p1.Z17 (antibody, V domains shown)
VH: B9 VH with V2I, Q39E
VL: B9 VL with Y49H, V58I
B13: 290F10G10.p1.Z16 (antibody, V domains shown)
VH: B9 VH with V2I, Q39E
VL: B9 VL
B14: 290F10G10.p1.Z15 (antibody, V domains shown)
VH: B9 VH
VL: B9 VL with Q38H, A43G, Y49H, V58I

Target: T1, human LIV-1 (human, UniProt Q13433 29-755)
T1 sequence (looked up): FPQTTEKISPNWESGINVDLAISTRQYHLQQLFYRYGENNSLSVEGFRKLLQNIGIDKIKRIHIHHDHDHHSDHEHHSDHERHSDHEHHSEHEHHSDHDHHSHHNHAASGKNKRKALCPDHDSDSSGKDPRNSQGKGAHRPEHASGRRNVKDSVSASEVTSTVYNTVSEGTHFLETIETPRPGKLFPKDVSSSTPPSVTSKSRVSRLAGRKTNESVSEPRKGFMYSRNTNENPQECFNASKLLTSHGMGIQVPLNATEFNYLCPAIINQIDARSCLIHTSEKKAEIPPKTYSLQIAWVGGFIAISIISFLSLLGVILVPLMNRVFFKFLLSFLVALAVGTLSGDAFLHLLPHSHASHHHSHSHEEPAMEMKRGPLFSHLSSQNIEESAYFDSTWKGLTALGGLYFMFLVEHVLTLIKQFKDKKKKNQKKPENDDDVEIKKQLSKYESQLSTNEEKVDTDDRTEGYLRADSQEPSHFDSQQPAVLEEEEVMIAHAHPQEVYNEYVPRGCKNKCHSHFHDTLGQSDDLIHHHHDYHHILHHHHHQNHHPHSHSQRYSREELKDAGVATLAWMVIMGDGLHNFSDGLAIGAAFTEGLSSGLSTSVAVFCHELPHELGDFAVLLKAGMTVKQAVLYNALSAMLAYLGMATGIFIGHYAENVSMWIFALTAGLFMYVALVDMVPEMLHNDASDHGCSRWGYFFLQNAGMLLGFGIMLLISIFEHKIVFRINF
Experiment: cell-based or functional assay

| ADCC reporter EC50 | ADCC reporter Top (RFU) | Binder |
| --- | --- | --- |
| 300 pM | 191000 RFU | B1 |
| 200 pM | 151000 RFU | B2 |
| 1100 pM | 36300 RFU | B3 |
| 4800 pM | 83900 RFU | B4 |
| 20500 pM | 74700 RFU | B5 |
| 2100 pM | 81900 RFU | B6 |
| 4100 pM | 101000 RFU | B7 |

Target: T1, human LIV-1
Experiment: cell-based or functional assay
Remark: another data set of the same source

| Internalization EC50 | Internalization Top (RFU) | Binder |
| --- | --- | --- |
| 10100 pM | 178000 RFU | B1 |
| 16900 pM | 171000 RFU | B2 |
| 51800 pM | 558000 RFU | B8 |
| 3900 pM | 408000 RFU | B3 |
| 32200 pM | 835000 RFU | B4 |
| 13200 pM | 643000 RFU | B5 |
| 4300 pM | 474000 RFU | B6 |
| 4200 pM | 554000 RFU | B7 |

Target: T1, human LIV-1
Experiment: cell-based or functional assay
Remark: another data set of the same source

| Binder | Cell viability(%) | Cytotoxicity IC50 |
| --- | --- | --- |
| B1 | 17.7% | 1530 pM |
| B2 | 16.2% | 1540 pM |
| B8 | 17.8% | 2250 pM |
| B3 | 20.3% | 810 pM |
| B4 | 16.3% | 1210 pM |
| B5 | 18% | 2080 pM |
| B6 | 15.4% | 570 pM |
| B7 | 18.5% | 690 pM |

Target: T2, cynomolgus LIV-1 (cynomolgus, UniProt A0A2K5WH46 30-741)
Experiment: FACS, cyno LIV-1 cells
Target sequence in this assay (A0A2K5WH46 entry or part of it): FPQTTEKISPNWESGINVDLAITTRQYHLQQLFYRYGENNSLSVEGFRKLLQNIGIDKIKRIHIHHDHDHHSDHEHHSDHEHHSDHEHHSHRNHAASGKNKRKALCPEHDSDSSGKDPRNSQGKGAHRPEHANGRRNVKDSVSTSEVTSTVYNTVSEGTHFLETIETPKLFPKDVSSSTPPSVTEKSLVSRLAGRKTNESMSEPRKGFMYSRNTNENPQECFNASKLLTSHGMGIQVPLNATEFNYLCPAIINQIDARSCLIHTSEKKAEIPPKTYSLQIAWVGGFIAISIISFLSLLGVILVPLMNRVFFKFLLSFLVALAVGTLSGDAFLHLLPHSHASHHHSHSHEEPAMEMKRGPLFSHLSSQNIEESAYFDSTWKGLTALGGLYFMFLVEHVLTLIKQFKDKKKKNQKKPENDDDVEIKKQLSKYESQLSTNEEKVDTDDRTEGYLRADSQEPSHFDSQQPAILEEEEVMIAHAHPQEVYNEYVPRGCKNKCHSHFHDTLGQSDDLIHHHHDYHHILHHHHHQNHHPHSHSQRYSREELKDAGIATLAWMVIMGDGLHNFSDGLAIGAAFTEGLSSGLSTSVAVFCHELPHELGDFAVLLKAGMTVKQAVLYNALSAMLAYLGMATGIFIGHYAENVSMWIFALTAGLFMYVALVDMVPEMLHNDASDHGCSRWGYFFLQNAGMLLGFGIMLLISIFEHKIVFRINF

| EC50 | Top (MFI) | Binder |
| --- | --- | --- |
| 460 pM | 7180 MFI | B9 |
| 480 pM | 7220 MFI | B10 |
| 560 pM | 7040 MFI | B11 |
| 510 pM | 6820 MFI | B12 |
| 610 pM | 6920 MFI | B13 |
| 360 pM | 7210 MFI | B14 |

Target: T1, human LIV-1
Experiment: FACS, human LIV-1 cells
Description: In this example, cell based binding of humanized antibodies (hu Abs) on human LIV-1-expressing cells were assessed using flow cytometry.
Cell based binding of hu-Abs on human LIV-1 expressing cells were assessed using flow cytometry. Briefly, the HEK293/H_LIV-1 cells were incubated with hu-Abs (from 100 nM, 6 folds dilution, 8 points). After incubation at 4° C. for 60 minutes, the cells were washed with FACS buffer twice, then stained with fluorescent conjugated secondary antibody at 4° C. for 30 minutes. After that the cells were washed twice and analyzed by flow cytometry.

| EC50 | Top (MFI) | Binder |
| --- | --- | --- |
| 320 pM | 7630 MFI | B9 |
| 300 pM | 7410 MFI | B10 |
| 360 pM | 7430 MFI | B11 |
| 390 pM | 7520 MFI | B12 |
| 430 pM | 7440 MFI | B13 |
| 270 pM | 7550 MFI | B14 |

Target: T1, human LIV-1
Experiment: FACS, HEK293/H_LIV-1 cells
Outline: (§1)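 HEK293 cells over-expressing human or cyno LIV-1 incubated with chimeric Abs (from 100 nM, 5-fold dilutions, 8 points) for 60 min at 4 °C, then fluorescent secondary antibody 30 min at 4 °C; washes in 2% FBS/PBS. Binding read by flow cytometry; EC50 from the titration curve.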

| EC50 | Top (MFI) | Binder |
| --- | --- | --- |
| 370 pM | 60900 MFI | B1 |
| 240 pM | 61800 MFI | B2 |
| 4030 pM | 34600 MFI | B8 |
| 100 pM | 15100 MFI | B3 |
| 850 pM | 7910 MFI | B4 |
| 20700 pM | 8800 MFI | B5 |
| 230 pM | 7980 MFI | B6 |
| 430 pM | 7340 MFI | B7 |

Target: T2, cynomolgus LIV-1
Experiment: FACS, HEK293/Cyno_LIV-1 cells
Outline: as §1

| EC50 | Top (MFI) | Binder |
| --- | --- | --- |
| 300 pM | 36700 MFI | B1 |
| 210 pM | 37300 MFI | B2 |
| 3920 pM | 21700 MFI | B8 |
| 110 pM | 8060 MFI | B3 |
| 760 pM | 3450 MFI | B4 |
| 12000 pM | 2930 MFI | B5 |
| 200 pM | 3370 MFI | B6 |
| 1330 pM | 2340 MFI | B7 |
